Target: T cell receptor specific for HLA-A*02:01/NYESO, on Jurkat cells / NY-ESO-1 specific T cell line
Assay: flow cytometry, PE tetramer staining; the negative cells are said to have lost the TCR

Substance	tetramer-negative population of cells [%]
CHO-derived PE-HLA-A*02:01 tetramer loaded with NY-ESO-1 peptide (single-chain complex, TAPBPR-exchanged) (peptide-MHC)	9
conventionally refolded NYESO/HLA-A*02:01 tetramer (from UniProt P61769 21-119) (peptide-MHC)	9

Reference: patent US20210155670A1, “SYSTEMS AND METHODS FOR THE PREPARATION OF PEPTIDE-MHC-I COMPLEXES WITH NATIVE GLYCAN MODIFICATIONS” (The Regents of the University of California, priority 2019, published 2021)
